Measurements taken from patent US20190247480A1.

Molecular target: HLA-A3 (human)
Assay: assembly assay, stabilisation of HLA-A3 in T2-A3 lysates, W6/32 immunoprecipitation

C50 value (peptide concentration required for half maximal recovery of class I MHC molecules) | Binder
4 | RLGLQVRKNK [Rho1L2 (…), modified RhoC peptide with Leu at position 2]
> 40 | RAGLQVRKNK [Rho1 (…), native RhoC-derived peptide]
